Measured values: US20150299277A1, “AGENT FOR TREATING OR PREVENTING SYSTEMIC INFLAMMATORY RESPONSE SYNDROME” (THE UNIVERSITY OF TOKYO, priority 2012, published 2015)
Entries after “also recorded” stand apart in the source; their conditions may differ.

Tests used:
each histone variant = assay: Aggregation of each histone variant and PTX3 fragment, absorbance at 310 nm; type: binding; conditions: histone variant 50 μg/mL, PTX3 fragment 30 μg/mL
Method: Each histone variant (50 μg/mL) and each PTX3 fragment (30 μg/mL) were mixed, and the absorbance at the wavelength of 310 nm was measured. Before mixing, samples were dialyzed against 4 mM CaCl2-containing TBS.

each histone [1] = assay: ELISA binding assay; design: species or system human; conditions: immobilized recombinant histone
Method: Recombinant human histone (NEB) was adjusted to a concentration of 1 μg/mL in TBS, added to a 96 well ELISA plate, and immobilized at 4° C. overnight. The solution was discarded, a blocking buffer (TBS, 0.1% Triton-X100, 1% BSA) was added, and the plate was incubated at room temperature for 2 hr. The plate was washed four times with a wash buffer (TBS, 0.1% Triton-X100), recombinant PTX3 diluted to various concentrations with the blocking buffer was added to each well, and reacted at room temperature for 1 hr. After washing four times with the wash buffer, HRP-labeled antibody diluted with the blocking buffer was added, and reacted at room temperature for 1 hr. After washing four times with the wash buffer, TMB solution was added to carry out a color development reaction for 30 min, and the absorbance at 450 nm was measured. […]
The binding level between immobilized each recombinant histone and tag-free recombinant human PTX3 (rhPTX3) was measured by binding assay (ELISA). […] ELISA was performed with duplicate wells for each point, and means and standard deviations were calculated from three independent experiments.
The binding level between immobilized each recombinant histone and a tagged human PTX3 fragment was measured by binding assay (ELISA). […] ELISA was performed with duplicate wells for each point, and means and standard deviations were calculated from three independent experiments.

Calf Thymus Histones = assay: Aggregation with histone, absorbance at 310 nm; type: binding; conditions: mixture with Calf Thymus Histones
Method: The lower left figure and the lower right figure show the measurement results of absorbance at 310 nm of a mixture of a wild-type or oligomer formation capacity-deficient mutant of PTX3 N-terminal domain having each concentration and 0.1 mg/mL Calf Thymus Histones at 1:1 vol.
The aggregation activity of PTX3 and other pentraxins to histone was evaluated. Calf Thymus Histones (50 μg/mL) were mixed with a PTX3 fragment or the other pentraxin at each concentration, and the absorbance at the wavelength of 310 nm was measured. Before mixing, samples were dialyzed against 4 mM CaCl2-containing TBS.

each histone [2] = assay: BIAcore / surface plasmon resonance (SPR) measurement; type: binding, human; conditions: immobilized recombinant histone
Method: For the measurement, BIAcore 3000 or T200 (GE Healthcare) was used. Recombinant human histone was immobilized on CM5 sensor chip by an amine coupling kit (GE Healthcare). The reaction with recombinant PTX3 was performed using a buffer (150 mM NaCl, 20 mM HEPES, 0.005% surfactant P20 (pH 7.4)) at a flow rate of 20 μl/min. Measurement was performed using the buffer containing […]. The sensor chip was regenerated in IM sodium acetate (10 μL, pH 7.2) and 10 mM NaOH (10 μL).
The binding of immobilized each recombinant histone, and Myc- and His-tagged human PTX3 fragment was measured by surface plasmon resonance (SPR). The highest concentration of each PTX3 was as follows. full-length PTX3: 1 nM, N-terminal domain of PTX3: 5 nM, C-terminal domain of PTX3: 50 nM. The assay buffer contained 4 mM CaCl2 (Ca^2+) or 4 mM EDTA/EGTA. The affinity measured by SPR was calculated from three experiments.

[3] = tested on: Calf Thymus Histones on HUVEC; assay: Cytotoxic assay: suppression of histone cytotoxicity on HUVEC; type: cell-based, human; conditions: 100 μg/mL Calf Thymus Histones, 40 μg/mL protein, 1 hr, PI staining, FACS
Method: After culturing for 1 hr in a medium concurrently containing 100 μg/mL Calf Thymus Histones and APC (200 nM), PTX3 (40 μg/mL), CRP (40 μg/mL) or SAP (40 μg/mL), the level of toxic activity was measured by FACS.
Normal human umbilical vein endothelial cells (HUVECs) were cultured in EGM2 medium (Clonetics). The cells after culture were washed with PBS, added with Opti-MEM medium containing an product of incubation of activated protein C (APC), PTX3, C reactive protein (CRP) or Serum amyloid P component (SAP) with histone for 1 hr, and the cells were further cultured for 1 hr. Propidium iodide (PI) was added to the medium after culture at a final concentration of 10 μg/mL, and the cells were stained for 10 min. The cells were washed with PBS, detached and analyzed by flow cytometry.
The histone cytotoxicity on HUVEC was evaluated by propidium iodide (PI) staining.
Lastly, capacity of suppressing the cytotoxic activity of histone was confirmed. Since this experiment requires a certain amount of protein and an endotoxin-elimination as treatment, a protein was expressed and purified at a 500 mL culture scale, and subjected to an endotoxin-elimination treatment (FIG. 18). In the case of PTX3 N-terminal domain, about 10 mg was obtained at a 500 mL culture scale, and a loss by the endotoxin-elimination treatment was scarcely observed. […]

B1: C-terminal domain of PTX3: C-terminal domain human PTX3 (179-381 amino acids), Myc- and His-tagged (protein)
chain: CETAILFPMRSKKIFGSVHPVRPMRLESFSACIWVKATDVLNKTILFSYGTKRNPYEIQLYLSYQSIVFVVGGEENKLVAEAMVSLGRWTHLCGTWNSEEGLTSLWVNGELAATTVEMATGHIVPEGGILQIGQEKNGCCVGGGFDETLAFSGRLTGFNIWDSVLSNEEIRETGGAESCHIRGNIVGWGVTEIQPHGGAQYVS
modifications: left off: small tags and cut ends
notes: C-terminal domain human PTX3 (179-381 amino acids), Myc- and His-tagged
aggregation with each histone variant, absorbance at 310 nm (each histone variant): aggregated
bindability to each histone (binding assay) (each histone [1]): weak
aggregation with Calf Thymus Histones, absorbance at 310 nm (Calf Thymus Histones): weaker than that of the full-length PTX3 and N-terminal domain of PTX3
affinity for each histone by SPR (each histone [2]): full-length PTX3>N-terminal domain>C-terminal domain

B2: N-terminal domain that lost the oligomer formation capacity: N-terminal domain human PTX3 wherein the 47th, 49th, 103rd cysteine residues were replaced with serine residue (protein)
chain: ENLYFQGENSDDYDLMYVNLDNEIDNGLHPTEDPTPSDSGQEHSEWDKLFIMLENSQMRERMLLQATDDVLRGELQRLREELGRLAESLARPSAPGAPAEARLTSALDELLQATRDAGRRLARMEGAEAQRPEEAGRALAAVLEELRQTRADLHAVQGWAARSWLPAG
modifications: left off: small tags and cut ends
notes: N-terminal domain human PTX3 wherein the 47th, 49th, 103rd cysteine residues were replaced with serine residue
bindability to each histone (binding assay) (each histone [1]): decrease; also recorded: scarcely bound
aggregation with Calf Thymus Histones, absorbance at 310 nm (Calf Thymus Histones): decrease; also recorded: decreased aggregation activity
affinity for each histone by SPR (each histone [2]): affinity decreased as compared to the wild-type

B3: CRP: C-reactive protein, short pentraxin used as comparator (protein, UniProt P02741 19-224, looked up)
C-reactive protein: QTDMSRKAFVFPKESDTSYVSLKAPLTKPLKAFTVCLHFYTELSSTRGYSIFSYATKRQDNEILIFWSKDIGYSFTVGGSEILFEVPEVTVAPVHICTSWESASGIVEFWVDGKPRVRKSLKKGYTVGAEASIILGQEQDSFGGNFEGSQSLVGDIGNVNMWDFVLSPDEINTIYLGGPFSPNVLNWRALKYEVQGEVFTKPQLWP
aggregation with Calf Thymus Histones, absorbance at 310 nm (Calf Thymus Histones): no aggregation capacity; also recorded: scarcely showed an aggregation activity
suppression of toxic activity of Calf Thymus Histones on HUVEC [3]: do not have such suppressive effect
